The values that follow come from the nanobody polyreactivity screen of Harvey et al. (2022).

The nature of this data set: yeast display, Sf9 membrane polyspecificity reagent, FACS + sequencing; frameworks hold sequencing errors. In a few lines:
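Nanobodies from a synthetic yeast display library (Saccharomyces cerevisiae BJ5465), induced 36–48 hours with galactose, were stained 1 hour at 4 °C with 10% biotinylated, detergent-solubilized Sf9 membrane reagent, enriched on streptavidin microbeads, then FACS-sorted. Anti-HA (expression) and streptavidin (reagent binding) fluorescence set low and high (top ~1%) gates. Polyreactivity labels come from the gate of origin. Genes were colony-PCR amplified, MiSeq 2 × 250 sequenced and filtered by CDR length.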
Turning to “QVQLVESGGCLVQAGGSLRLSCAASGSTFSWYTMGWYRQAPGKERELVAAITRGGTTYYADSVKGRFTISRDNAKNTVYLQMNSLKPEDSAVYYCAARYSRDVRMGYWGQGTQVTVSS”, the “polyreactivity (PSR sort gate)” value is “high polyreactivity”.

As to “QVQLVESGGGLVQAGGSLRLSCAASGRTFYSYVMGWYRQAPGKERELVAAISSTGGTYADSVKGRFTISRDNAKNTVYLQMNSLKPEDTAVYYCAARVHFPYPDYAWITVLYDYWGQGTQVTVSS”, the “polyreactivity (PSR sort gate)” value is on record as “low polyreactivity”.

On to “QDQLVESGGCLVQAGGSLRLSCAASGGTFRVYAMGWYRQAPGKERELVAAITGRGGSTYYADSVKGRFTISRDNAKNTVYLQMNSLKPDDTAVDYCNKEPELVEYDYWGQGTQVTVSS”, for which the “polyreactivity (PSR sort gate)” value is listed as “low polyreactivity”. In the case of “QFQLVESGGGLDQAGGSLRLSCAASGFTFQYYAMGWYRQAPGKERELVAAITRGDSTNYADSVKGRFTISRDNAKNTVYLQMNSLKPEDTAVYYCAAGSAPSYWGGWYYERDYWGQGTQVTVSS”, the “polyreactivity (PSR sort gate)” value was “low polyreactivity”. The value for “QVQLQESGGGLVQAGGSLRLSCAASGSISYPRTMGWYSQAPGQEREFVAGIGVGGNTYYAESVKGRFTISSDNAKNTVYLQMNSQKPEDTAVYYCNAEWYYPYYYSRMDYWGLGTQVTVSS” was “low polyreactivity”; that for “QVQLVESGGGLVQAGGSLRLSCAHSGFIFSLYAMGWYIQAPGKERELVAAISRRGGNTYYADSVKGRFTISRDNGKNTVYLQMNSLKPVDTAVSYCNTGQRYGYDWGQGTQVTVSS” was “high polyreactivity”. The value for “QVQLVESGGGLVQAGGSLRLSCAASGYIFRGYVMGWYRQAPGKERELVAAITSRGDSTYYADSVKGRFTISRDNAKNTVYLQMNSLKPEDTAVYYCNAVHYYVEYDYWGQGTQVTVSS” was “high polyreactivity”; that for “QVQLVESGGGLVQAGGSLRLSCAASGRIFTNNAMGWYRPAPGKERELVAAISRSGGRTYYADSVKGRFTISRDNAKNTVYLQMNSLKPEDTAVYYCAAVHLYYGYNSPFTMDYWGQGTQVTVSS” was “high polyreactivity”; that for “QVQLVESGGGFVQAGGSLRLSCAASGFTFYKYAMGWYRQAPGQERELVAAITRGGGSTYYADSVKGRFTISRDHAQNPVYLQKNRLIPEDPAVYYCNVLYGYGTDVSRVDYWGQGTQVTVSS” was “high polyreactivity”. To “QVQLVESGGGLVKAGGSLRISCAASGFTFVSYSKGWYRQAPGKERELVADISSGVSTNYADSVKGRFTISRDNAKNTVYLQMNSLNPEDTAVYYCAAYGTKWGRGFYITGYGYWGQGTQVTVSS” belongs “low polyreactivity”; to “QVQLVESGGGLVQAGGSLRLSCAASGFIFYYYAMGWYRQAPGKERELVAAITSGGGTTYYADSVKGRFTISRDNAKNTVYLQMNSLKPEDTAVYYCNADSYYNSWFYYFDGFDGDYWGQGTQVTVSS”, “high polyreactivity”; to “QVQLVESGGGLVQAGGSLRLSCAASGSIFPAYAMGWYRQAPGKERELVAAITRGGRTNYADSVKGRFTISRDNAKNSVYLQMNSLKPEDTAVYYCAKAVQGKYGYWGQGTQVTVSS”, “high polyreactivity”. As to “QVQLVESGGGLVQAGGSLRLSCAASGSIFYAYAMGWYRQAPGKEMELVAAIDTSGGRTYYADSVKGRFTISRDNAKNTVYLQLNSLKPEDTAVYYCDAECPCYNEHYYWGQGTQVTVSS”, the “polyreactivity (PSR sort gate)” value is on record as “high polyreactivity”. The value for “QVQLVESGGALVQAGGSLRLSCAASGYTSILYAMGWYRQAPGKEMELVASITKSGDDTYYADSVKGRFTISRDNAKNTVYLQMNSLKPEDTAVYYCAAEYTYGDYSYVWYDYWGQGTQVTVSS” was “high polyreactivity”; that for “QVQLVESGGVLVQAGGSLRLSCAASGSIFYSYAMGWYRQAPGKDRELVAAITRSGGSTYYADSVKGRFTISRENAKNTVYVQMHSLKPEDTAGYYCNARGKGDYYWGQGTQVTVSS” was “high polyreactivity”; that for “QVQLVESGGGLVQAGGTLRLSCAASGRISTHNAMGWYRQAPGKERELVAAITSGGRTTYADSVKGRFTISRDNAKNTVYLLMNSLKPEDTAVYYCNADTGLGSLDFDKRDYWGQGTQVTVSS” was “low polyreactivity”.
